30 sequences from the nanobody polyreactivity screen of Harvey et al. (2022) can be followed below.

This data set in a line: yeast display, Sf9 membrane polyspecificity reagent, FACS + sequencing; frameworks hold sequencing errors. The procedure, abridged: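 A synthetic nanobody library was expressed on Saccharomyces cerevisiae BJ5465 by galactose induction for 36–48 hours. The library was stained for 1 hour at 4 °C with 10% biotinylated, detergent-solubilized Sf9 membrane reagent and enriched with streptavidin microbeads before FACS. Low and high (top ~1%) gates were set on anti-HA fluorescence for expression and streptavidin fluorescence for reagent binding, and each polyreactivity label reflects the gate of origin.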
Regarding “QVQLVESGGGLVQAGGSLRLSCAASGRTFGCYAMGWYRQAPGKERELVASITQRGGRTYYADSVKGRFTISRDNAKNTVYLQMNSLKPEDTAVYYCAAKTSPGMYYWVQGTQVTVSS”, the “polyreactivity (PSR sort gate)” value is “high polyreactivity”. In the case of “QVQLVESGGGLVQAGGSLRLSCAASGRTFGDYAMGWYRQAPGKERELVAAITIGGSTYYADSVKGRFTISRDNAKNTVYLQMNSLKPEDTAVYYCAATTYSIPSRYDSWGQGTQVNVSS”, the “polyreactivity (PSR sort gate)” value is on record as “low polyreactivity”. With “QVQLVESGGGLVQAGGSLRLSCAASGRTFGEYAMGWYRQAPGKERELVAAISSAGSTYYADSVKGRFTISRDNAKNTVYLQMNSLKPEDTAVYYCAASRKYGYGYWGQGTQVTVSS”, the “polyreactivity (PSR sort gate)” value is reported as “high polyreactivity”. With “QVQLVESGGGLVQAGGSLRLSCAASGRTFGFNAMGWYRQAPGKERELVAAISSSSSSTYYADSVKGRFTISRDIAKNTVYLQMNSLKPEDTAVYYCAADIVYVTWFYYWGQGTQVTVSS”, the “polyreactivity (PSR sort gate)” value is “low polyreactivity”. As for “QVQLVESGGGLVQAGGSLRLSCAASGRTFGFYAMGWYRQAPGKERELVAAIRGSIGNTYYADSVKGRFTISRDNAKNTVYLQMNSLKPEDTAVYYCAKAIRYPSAKFYWGQGTQVTVSS”, the “polyreactivity (PSR sort gate)” value was “high polyreactivity”. Turning to “QVQLVESGGGLVQAGGSLRLSCAASGRTFGFYAMGWYRQAPGKERELVATISSSGGSTYYADSVKGRFTISRDNAKNTVYLQMNSLKPEDTAVYYCAADYLDSTYGYVYGWDDYWGQGTQVTVSS”, the “polyreactivity (PSR sort gate)” value is listed as “low polyreactivity”. As for “QVQLVESGGGLVQAGGSLRLSCAASGRTFGFYVMGWYRQAPGKERELVAAITPGGNTNYADSVKGRFTISRDNAKNSVYLQMNRLKPEDTAVYYCAASPGTIASYEGDFWGQGTQVTVSS”, the entry is “low polyreactivity”; as for “QVQLVESGGGLVQAGGSLRLSCAASGRTFGGNAMGWYRQAPGKERELVAAISSGGSTNYADSVKGRFTISRDNAKNTVYLQMNSLKPEDTAVYYCAAGWYWWARYDYWGQGTQVTVSS”, “low polyreactivity”. Consider “QVQLVESGGGLVQAGGSLRLSCAASGRTFGGNAMGWYRQAPGKERELVAAISSGGSTNYADSVKGRFTISRDNANNTVYLQMNSLKPEDTAVYYCAARGPYWGQGTQVTVSS”, for which the “polyreactivity (PSR sort gate)” value is “low polyreactivity”.

Consider “QVQLVESGGGLVQAGGSLRLSCAASGRTFGGNAMGWYRQAPGKERELVASISWSGGTTYYADSVKGRFTISRDNAKNTVYFQMNSLKPEDTAVYYCNTVNSQQYSSSHYDSWGQGTQVTVSS”, for which the “polyreactivity (PSR sort gate)” value is recorded as “high polyreactivity”. Take “QVQLVESGGGLVQAGGSLRLSCAASGRTFGGNTMGWYREAPGKERELVAAISRRGGSTYYADSVKGRFTISRDNAKNTVYLQMNSLKPEDTAVYYCNKDGPSYSSYDYWGQGTQVTVSS”: the “polyreactivity (PSR sort gate)” value is “low polyreactivity”. As to “QVQLVESGGGLVQAGGSLRLSCAASGRTFGGNTMGWYRQAPGKERELVAAISFSGGSTYYADSVKGRFTISRDNAKNTVYLQMNSLKPEDTAVYYCAREDYSHSFLTYDYWGQGTQVTVSS”, the “polyreactivity (PSR sort gate)” value is “low polyreactivity”. In the case of “QVQLVESGGGLVQAGGSLRLSCAASGRTFGGYALGWYRQAPGKERELVATISYSSGSTYYADSVKGRFTISRDNAKNTVYLQMNSLKPEETAVYYCAARIRYFYRYDYWGQGTQVTVTS” it was “high polyreactivity”; in that of “QVQLVESGGGLVQAGGSLRLSCAASGRTFGGYAMGWYRQAPGKERELVAAITSDTGTNYADSVKGRFTISRDNAKNTVYLQMNSLKPEDTAVYYCAADRFYEYDYWGQGTQVTVSS”, “low polyreactivity”.

Consider “QVQLVESGGGLVQAGGSLRLSCAASGRTFGGYTMGWYRQAPGKEREFVAAITWSTGGSTYYADSVKGRFTISRDNAKNTVYLQMNSLKPEDTAVYYCAKDLYLHTYYAYPYRFGSGYYWGLGTQVTVSS”, for which the “polyreactivity (PSR sort gate)” value is “low polyreactivity”.

“QVQLVESGGGLVQAGGSLRLSCAASGRTFGGYTMGWYRQAPGKERELVAAISWGGGSTYYADSVKGRFTISRDNAKNTVYLQMNSLKPEDTAVYYCAAVSPNLRLFGYRYRYEYWGQGTQVTVSS”: the “polyreactivity (PSR sort gate)” value is listed as “high polyreactivity”. For the sequence “QVQLVESGGGLVQAGGSLRLSCAASGRTFGHNAMGWYRQAPGKEREFVAAITYSGVRTFYADSVKGRFTISRDNAKNTVYLQMNSLKPEDTAVFYCAAYYPSQDYSGFWSDTYEYWGQGTQVTVSS”, the “polyreactivity (PSR sort gate)” value is recorded as “low polyreactivity”. Regarding “QVQLVESGGGLVQAGGSLRLSCAASGRTFGINAMGWYRPAPGKERELVAAIRTGGSTYYADSVKGRFTISRDNAKNTVYLQMNSLKPEDTAVFYCAAVLYHNRKTEYTYGYWGQGTQVTVSS”, the “polyreactivity (PSR sort gate)” value is reported as “high polyreactivity”. As for “QVQLVESGGGLVQAGGSLRLSCAASGRTFGINAMRWSRQATGKERELVAAITGRSGRTYYADSVKGRFTISRDNAKYTVYLQMNSLQPEDTAVYYCAARWPVYSRRYGYWGQGTQVTVSS”, the entry is “high polyreactivity”. In the case of “QVQLVESGGGLVQAGGSLRLSCAASGRTFGIYAMGWYRPAPGKERELVATISWRGGSTYYADSVKGRFTISRDNAKNTVYLQMNSLKPEDTAVYYCAAGYYPYWGQGTQVTVSS” it was “low polyreactivity”; in that of “QVQLVESGGGLVQAGGSLRLSCAASGRTFGIYAMGWYRQAPGKERELVAAITWSGDSTYYADSVKGRFTISRDNAKNTVYLQMNSLKPEDTAVYYCAADYFGVTSVRYDYWGQGTQVTVSS”, “low polyreactivity”; in that of “QVQLVESGGGLVQAGGSLRLSCAASGRTFGIYAMGWYRQAPGKEREMVAAISRGGNTYADSVKGRFTISRDNAKNTVYLQMNSLKQEDTAVYYCAAYSSYYVHRFQHYDYWGQGTQVTVSS”, “high polyreactivity”.

As to “QVQLVESGGGLVQAGGSLRLSCAASGRTFGKNAMGWYRQAPGKEREFVAAITSRGGSTYYADSVKGRFTISRDNAKNTVYLQMNSLKAEDTAVYYCNREYIRPSQRTEHYYWGQGTQVTVSS”, the “polyreactivity (PSR sort gate)” value is “low polyreactivity”. As for “QVQLVESGGGLVQAGGSLRLSCAASGRTFGKNAMGWYRQAPGKEREFVAAITSRGGSTYYADSVKGRFTISRDNAKNTVYLQMNSLKPEDTAVYYCAADYYQWSTFLGVYEYDYWGQGTQVTVSS”, the entry is “low polyreactivity”; as for “QVQLVESGGGLVQAGGSLRLSCAASGRTFGKYAMGWYRQAPGKESELVAAITNSGGSTYYADSVKGRFTISRDNAKNTVYLQMNSLKPEDTAVYYCNRLGYRGPSKLNHMGYWGQGTQVTVSS”, “high polyreactivity”. Turning to “QVQLVESGGGLVQAGGSLRLSCAASGRTFGLNAMGWYRQAPGKERELVAAISSSGGSTYYADSVKGRFTISRDNAKNTVYLQMNSLKPEDTAVYYCAKVLYRYGTAYYYWGQGTQVTVSS”, the “polyreactivity (PSR sort gate)” value is listed as “high polyreactivity”. “QVQLVESGGGLVQAGGSLRLSCAASGRTFGLYAMGWYRQAPGKERELVAAIDQSTGSTYYADSVKGRFTISRDNSKNTVYLQMNSLKQEDTAVYYCAAEEASTVRYYWYDYWGLGTQVTVSS”: the “polyreactivity (PSR sort gate)” value is listed as “high polyreactivity”. “QVQLVESGGGLVQAGGSLRLSCAASGRTFGLYAMGWYRQAPGKERELVAAISWGGGRTYYADSVKGRFTISRDNAKNTVYLQMNSLKPEDTAVYYCNAVYSPRYYVGGYDYWGQGTQVTVSS”: the “polyreactivity (PSR sort gate)” value is reported as “high polyreactivity”. In the case of “QVQLVESGGGLVQAGGSLRLSCAASGRTFGLYAMRWYIQAPGKERELVAAIRGSAGSTYYADSVKGRFTISRDNAKNTVYLQMNSLKPEDTAVYYCATGGYPSLWYGYGYWGQGTQVTVSS”, the “polyreactivity (PSR sort gate)” value is “low polyreactivity”. For “QVQLVESGGGLVQAGGSLRLSCAASGRTFGLYDMGWYRQAPGKERELVAGITRRGGRTYYADSVKGRFTISRDNAKNTVYLQMNSLKPEDTAVYYGAAGTLYLRHAQSPFDYWGQGTQVTVSS”, the “polyreactivity (PSR sort gate)” value is recorded as “high polyreactivity”.
